Target: LhrD1536A (Escherichia coli MG1655, UniProt P30015 1-1538, D1536A)
Test: EMSA; 5 mM EDTA; 12.5-200 nM protein, 12.5 nM DNA; similar to Lhr; 20 mM Tris pH 7.5, 10% glycerol, 100 ug/mL BSA, 25 mM DTT, 5 mM EDTA, 12.5 nM Cy5-DNA; 37 C 20 min then ice 10 min; 5% acrylamide TBE gel
Conditions: protein: recombinant; tags: His6; label: 5' Cy5; single strand

B1: Cy5-ssDNA (EMSA) (ssDNA)
DNA: TCGGATCCTCTAGACAGCTCCATGATCACTGGCACTGGTAGAATTCGGC
binding result: binds

Reference: PMC10953399, “Escherichia coli DNA repair helicase Lhr is also a uracil‐DNA glycosylase”
